The data set is described as follows: soluble on expression in E. coli; label from the status in PepcDB or PDB records.
For “MAHHHHHHMQDHMFAKSGVPANGAGLGQNYYTRDLITEVPTIIQIVPVSSEALATQRSPPKGTSDTFKISLDDVEPTAGWLSDRNNASLDICFMHSFGKCYGKIREKDPRTCHQIHVKRNVLDNLRKYYTNPQRNYFCRTMKANVTEKFAQVLSLLARRRIGLRYLEFRTEDIEVTAGSTEYEVQYRLWLVSDVEPQSRSRAQAANILTDNFISSSNLCWDFALTGRCCKGASCPDLHGHVAKALTKDRYVKAALAEMGKKDSLVPPTETTQPGKTPRVCQPSTSAPQQFPPPPPMPQQCASFIVSSPISPPYCFSSLPAASGMSAPSPNPTLAAFPLDMSSLQGTPCFLVDKGSDNVFRLITQSQFASFGNDAS”, the “soluble on expression in E. coli” value is “not soluble”.

Take “MAHHHHHHMQHSLRGDFVTQRSTCFRTEKERKQKALNLIKNENNAEGYFNNLNFNLEYTEELNEQITSLDPKTSIQELTNIFNDLNENRKKNFHYLIEALENVSLILAHQNDIPEKHRKSTWCKIKHDLQCDFIKEHPNIHSNFDVFIRKIQSIDEFISYIKECIHSWNNFTNEKKLQYFPKVYETYQSDKICKENNYKKINNKTECNPKESIKNESIPKECIPNENMKKECVPNGCMKKQCVPKECMKKECVTNGHMKKQCVPNECMKKQCVPKECMKKECVPNGCMKKECTPNKNDKNVNRTDINNQNKTNEKLCDKKEKKRLPSK”: the “soluble on expression in E. coli” value is listed as “soluble”.

Consider “MAHHHHHHMQKPIMIVGTSAPRRREIAQRHFGATYDLVYLSPDIDEKQIRDSDPFTLTRAIAQAKMDELRVKVARDAALQDRVAKRPGSVAITFDQVVDYHGEIREKPASEQQAAAFIHAYSNDNLGTVMTTVLYDFGTGKQVSMPNTTLTFYGEIPDETVARVVERGACLRTAGGFVVEDVDMKRCEIKIDPGTEEEVCGFCEKSVRALLEGVQRPWVQSDHCSDGKR”, for which the “soluble on expression in E. coli” value is reported as “not soluble”.

Regarding “MAHHHHHHMQTPNSECVGPESPKAGIASSCQGCPNASICASMPKGPDPDIELIRQRLSGVKRTVMVISGKGGVGKSTLTKELAFALGQMGLNVALVDLDICGPSLPRLMGVRGEDAHQSAAGIEPVLVDETVSMISMHYLLGDKNEAVLFRGPRKNGVIKMFLKDVIWGDVDIMLIDTPPGTSDEHITVASILQQCGGVTGAILITTPQLVAEADVKREVKFSHKAKLHLLGIVENMSGFVCPNCKESSVIFPRANSQGAGKRLSDEFGVPFWGEVPLDPVLMKACEEGVSLTDIVDGKSPTIEILQSVAAKLVASLEIE”, the “soluble on expression in E. coli” value is on record as “soluble”.

Turning to “MAHHHHHHMQVWGLVGRLTLPPSSSGKARKGSRRIPAADARLSKGSVNNRGRFVHNNRRMDNTLSVVVEKPAGLRRQWIAWPRGKSRDDPYEAIVPLLHISHYLPPVMAEAASCLDVKASFFPSLFTAGDSASLSMPRGGRHAGGADTTFNGIQGQPRNSPDYYYLGNRGGDDGGSPLWAAPPMVRIEVWIDNIRITGSKSDVTLWEAQVLRNADSCHAYLGGTANRALRNTLFWGYDLIKLTVRYP”, the “soluble on expression in E. coli” value is listed as “not soluble”.

With “MAHHHHHHMRAVQLVQGRARMCCVPFLFWVCPPPHLFSLSLPTPSLRSCGARTSCVAERSHASRRGGCGLPSPLPAQPTSPPDTRTGDTCICAFSFTPDEVSQTMTDRCYRTLGLDRGAAEADIKRAYRRKALLFHPDRNPNGAEAFKALQGDYEEALTDARRRGARGGGVPPFSSMASPSWDPAAPAAGAAYRFARAAGTACPPFFPEPSPAPLFTDEELFADSIPGGWRDVCARRGASARGGDKAGGRNNAAGRTEEINGSNSCCSQEAAAADARWRRAHGARVPVSAYTFSGPVPPPPPLPSQPSPHLSSSSFTSFCTHTRARASVAGTGSRLSTQAQRNRFVSRECMWKSSSAEALSLDAKQEAGGAGKVGRSRGCDGYTGQNREPVCGSDTGESAEDRVYREAVLLQRRMPALSGKSRGAAAERTRTHSQSDRAFSTEGVPVGSNATFPATRGVYHQRSDLHTSSTTTTTTTSSSTKGERLEAALSQREALCRQCRDTETTLQHEVDDDHAPAFSDDGDASAHPDKGDGAGSTNAALGPSAAGPLAASGRDTSRAGDPFPVKQSACPESNSDDRLRGDLPHRDRIPDECPLLQSENPRGRYTPNPAEVAEMSDMEVYLLASVAEDINQKTQTVMTARLSKEPYSCSASTPRAHQHVYFTCTHPSACEDCYASGVSKCPLCGASGVDRSSPPPSATTTSSSIEKGGTTGASGACTGTRASLASSSAPSPETMYEPVRVHSVLTCGDADA”, the “soluble on expression in E. coli” value was “not soluble”.

Regarding “MAHHHHHHMRGVSAAEIGKFRELQNHWWNPDGPLRTLHFFNPLRVKYINDTCRNFSKRSSLLASSGITPGMRILDVGCGGGILSESLVRLGGNVLGIDMCEESIAVAQQRREQVLQDVASCTLQNGAASLEYRYASLNTIAVEEKQQFDLVVASEVIEHVDDAPRFLQDLCDATKPGGLLIISTMDKSIRAAISHIAVAEYLTALVRPGTHDWSKFVPPKDLSRCALQHQVRQVDLQYIVACPNILMSLSTRQMQLAFSLSKRFDTGHYFWSGLKVTAPA”, the “soluble on expression in E. coli” value is reported as “not soluble”.

Take “MAHHHHHHMRHLYGPAPGCVLLSFDFNQMELRVLAHLSGDELLIKHLSSEYDVLSAMTRHITGLSDDEQVPPHLRETVKVVVYGLFYGMGLATMKERVKILMDSAHSVPSSQRKFTADTLLRAFHQRYPAAGKFLTRARIRAFHEARCVTLTGINDLSSEKDGNRRRQHSIARILQGSSSTLFQSAMVKVHERRHDIVPNLPAAPFALVLCIHDELIYSVVEGYVDVVARKIKGIMVEQAQVFSLRVPLRVSVKVGKTFGSLEKLDVP”: the “soluble on expression in E. coli” value is “soluble”.

On to “MAHHHHHHMRKPGRKIVYVPDDDAQFLGSMSDPLPPRVSDLLRLKSPSMSDNGHAETGSNGTTGSPGYESIGNELLVSYGGYTLADGSGTLHPPTTRRNGAQLYKSLRKCCRFLRASLSDSMAPKLETDSESSWSCPSFCSSDPTSSSEYSDVSPQRGRRRAAKQANEQTGYNAMIVVQLRRLLHKRGLSTCGIKKVLVARLEQSDMQLSKSKEEGEEQKEQEELDGSAGECTKTERSEDVCSASCGNVSGRVTAAGPTSMLSSLLSFGSRLFRASTGSVSEGGHVSGLKRRRSV”, for which the “soluble on expression in E. coli” value is given as “not soluble”.

Consider “MAHHHHHHMRNMNDKNNVHNNYYYLKLENVNNGWRNKELKNDITNENIYQFIGKKKKNYSSSEMSKNSYSTCNTNNNIYINYNNNNNMYNNYNNNIYKNLNNRNINYKGYKFKQNYHTNAYVNISKNRNYYYPSESKKLTNEYNKYDFDNLEKRECKIINDESYKIEETTDMENDMLYIHNDSLPSHQPTINNNTQELYHINNYNNNIYFYEPCEKDNYLDSSIKDIYFDIYSNDTSENIKNETNDIINVDQKGNKYEENNINISNNTHEYKTFVNDDKQLLLDHIKRLEYQNNIFLNNMLNMYYVCIDYIKLQDDKIKEHEQVINSQKEFISNLKKQLSSNDNTNVAYNININHINKYKHVTK”, for which the “soluble on expression in E. coli” value is reported as “not soluble”.

Turning to “MAHHHHHHMRPLASFRGNTQTMLYTPVQDKYSILMEDDKLRVGASSMQGWRSTMEDAHTIHLSLPGLPSHMASEDGAIAAVFDGHCGSKTSQTSAIRILEWITSMEAFGEGNMEKAIRDGFIAGDLAMQRSSPNEMSGCTGNCVLIVENHLYCGNVGDSRAVLCRDGTAIPLSEDHKPNLPRERERVLRAGGYIHNGRVNGVLSLSRALGDFAFKDSDLPPEAQAVTAIPDVVHLELTPQDEFVIIACDGVWDMVTNEKAVEIVRSEVADHSDLSLACERLMDACLSKVSTGAGTDNMTVIILQFKSFFLKKVESRFGAISCNAAE”, the “soluble on expression in E. coli” value is “not soluble”.

Regarding “MAHHHHHHMRRWLRNVRGGLLHPRAARLMVSCGKTHGLHMVSTVSRNTETEDEEIRDNESFPHQDDDDESVTEISEEMMRSLPKAPPKLRSAGSLLSTEEQEQLTRMIFKAHYAGEGMGENDRAMWYQSALEIHWLEEWAYEEFDGQTQRDVARRAVKKAVLQRVDLHKPLAYIIGHQPFYGCDIRCSPPLLCPRPETEMWTHWLVRTWLSKIPETTQPLRVLDMCCGTGCVGIAIAKHVPSAQVTAVDILDEAIGASEENAKLNGLEASRFCTLKSDMFESFLVSNSGSLTGEDTKLDLKKKEPAAEHAGSFDIIVSNPPYVLPDQYTDLPPGIKLWESKLALVGDEKREQQQYLYFQELSEFGSLLLKPKAMRNPALCAAPNIVIEVGLQAEQVASVMEKSKLWENVEIHLDYAQQMRWITASSSH”, the “soluble on expression in E. coli” value was “not soluble”.

Turning to “MAHHHHHHMSAGSDARIYRCTFIKKEAVKKVIYRKYYRHKKIDTKIRKLRVSNEIKFTKKLASLNIDVPYIYFVDAKEKSLYFEYVKGCTINFILKNLKEYEPKIPICVGMVLAKIHNGNIIHGDYTTSNLILRNSFIQQNNLLDLKNNNSPYNFSDLENVKLCVIDFGLSFLSSSIEDKAVDLFVLLKTIKSFHSEFPSLEEDILEGYKMKSDNVNDIFTKLEIVKQRGRKRPMVG”, the “soluble on expression in E. coli” value was “not soluble”.

With “MAHHHHHHMSARKFAGEYVSRHLDGLTVLASLADRPAAAKPVICTHNGSFHCDEAMACGLLRHVPEYREAVILRTRDPKQIDACDIVVDVGAIYDADTNRYDHHQASFHGTMTTPKKAYKTRLSSAGLVYKHFGRQIICEYVEAVLQPSSPARAAVLSMTSWSESRTGLSEAELDVLEDALYAHFVEQVDGIDNGVECWGLADPAVGTLVPNYTQSTSLSQRIGQLQAYWNEPENGDVVAENANFAVAVEMAVTEFFKALTYLSFSWLPARSIVEAAFQRRHEFDESGKIMVFKGVKACPWKDHLLELEAESNCLGAVLYVVFSDGKGWRVQAVPKTSTSFENRKPLPYRGLRDDALSAACGIEGGVFVHVSGFIGGMKTFDGAMALAKQALVVVN”, the “soluble on expression in E. coli” value is reported as “soluble”.

Take “MAHHHHHHMSCRRFHKVLQANEEENEHAREAFLASWRSEYQQFLQSKLAALVWHVEHHCRSHVTPQTATSMACGEVPRMKVATTAPNSTTTASTNSNSAMMAEDAEQHDACNVLAHKQNRRTTLPSHFFLEQTPTSMPFYPREFIVEKEAQMFRQTNSPFTVGETPHGSQHSRTEINASTATVVPLPSVHKKETADRNSEKDDDRTAILAVSPSPRQISMHSPSQIEDDGSLDASLSPAATVAVTNVLTRTPGPAVQLQKMLPTEEVSKANLRKTIARLYSESVDTRSSWSDTWSQKKQRAASLLPPPSSASHMMHLKTMHVSHGTPCENMEASRNDMLSKKQLICELRRLYGLEDER”: the “soluble on expression in E. coli” value is listed as “soluble”.

As for “MAHHHHHHMSDAQTVQTLVLWNGEWPYVKRGVSEVRAVAAGVIASANALVDVPAYLARARKYTAAADDFVTAQSARASSTLESHQWVVPAAGIALASVYVVVRSAPWGGMKMMRNGLVTAGALTAFMYPREIVHQIDRAMPFQAPASISEQKNES”, the “soluble on expression in E. coli” value is reported as “not soluble”.

Turning to “MAHHHHHHMSELKIGFLGCGSMGECIMAGLLKAKALGPENTFICNRSASTNERLVSLYQVKSVSAVELAEKSDIIMLGVKPYGIVPVLETIKEKITPSKLVVSMAAGVPIATIENHCPPKTKVVRVMPNIPSYVGEGVTSISGNSAVTPDDEAVVMKLFSAIGKSYLVAESAIHGVVGVAGSSPAYVFMFMEALSDGAVRGGIPRAQSYEMAAQAVLGAAKMLQDSGKTPSALKDMVCSPGGTTIEAVRFLEKGGMRSSIIEAMIQCMEKSKEFERMYSE”, the “soluble on expression in E. coli” value is “soluble”.

Take “MAHHHHHHMSIFGVSSYFLWTQKGQTVLPLVRGSGFVMSFQQLNTFYSYHVMSAAHVTCPVKHRKLYGDTIGLKAIGERHISTRLLIPDEATHRVQSSFELEFRQQYMPNTDVASLRLCKEEQFKKAMLPPQDSGTGTASPLQVILPDLDRIEEGDELILCGVHTEEERANPNDDGLVLNPMRLIATCKAALLSLDYGTVLLASIDGPAEEARESGSGSAASASRPVTVPPLPLSMCGGPVLRRSSGRCVGVIAARVMANAPPRDPQSTSLYQDPYLDISEHIALHAHWPLDVAFVPIGEFYDPLRRCEM”: the “soluble on expression in E. coli” value is “not soluble”.

As for “MAHHHHHHMSIIHYSLQYNCKSFCIFTYFLIPSYWKCSTYNIPQYRSQNKNNFISFCIQFLVQQCVLIIHKVFNLPNTSLRNYFPQINKQINNQTFLNVVVKRKLNHGKLWGAHV”, the “soluble on expression in E. coli” value is “soluble”.

The record behind these values is the DeepSol protein solubility set.
